The values below come from US9878045B2, “Triorthogonal reagents for dual protein conjugation” (REGENTS OF THE UNIVERSITY OF MINNESOTA, priority 2013, dated 2018).

What all share (assay): Continuous fluorescence-based PFTase enzyme assay, prenylation of N-dansyl-GCVIA (2)
What all share (assay type): biochemical, Yeast

The target of one data set is T1, PFTase (Saccharomyces cerevisiae, UniProt P22007+P29703).
T1 sequence (P22007 1-431): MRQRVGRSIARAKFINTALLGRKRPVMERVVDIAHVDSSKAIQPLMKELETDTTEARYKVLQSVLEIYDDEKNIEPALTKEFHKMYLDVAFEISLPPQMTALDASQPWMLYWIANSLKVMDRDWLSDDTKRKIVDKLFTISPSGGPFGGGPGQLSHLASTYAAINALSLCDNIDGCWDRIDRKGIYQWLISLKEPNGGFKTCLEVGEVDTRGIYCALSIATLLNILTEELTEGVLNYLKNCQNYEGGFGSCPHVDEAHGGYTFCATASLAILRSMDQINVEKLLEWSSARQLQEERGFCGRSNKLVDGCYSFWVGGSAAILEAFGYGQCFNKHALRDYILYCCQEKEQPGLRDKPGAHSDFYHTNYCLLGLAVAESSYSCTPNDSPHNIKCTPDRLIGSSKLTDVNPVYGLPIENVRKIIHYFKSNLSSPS
T1 sequence (P29703 1-316): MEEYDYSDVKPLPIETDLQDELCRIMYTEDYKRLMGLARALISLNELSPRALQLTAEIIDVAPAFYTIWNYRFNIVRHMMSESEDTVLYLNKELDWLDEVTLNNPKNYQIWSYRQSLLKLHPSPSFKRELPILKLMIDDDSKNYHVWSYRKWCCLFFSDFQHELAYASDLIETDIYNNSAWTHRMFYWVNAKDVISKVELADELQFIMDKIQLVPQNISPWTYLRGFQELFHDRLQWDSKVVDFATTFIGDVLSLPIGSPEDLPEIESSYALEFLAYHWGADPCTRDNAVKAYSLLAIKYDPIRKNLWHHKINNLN
The method, then:
(§1) Next, a kinetic analysis of that reaction was performed using varying concentrations of 1 and N-dansyl-GCVIA (SEQ ID NO: 2) (2) in the presence of PFTase showing that the enzymatic process obeyed saturation kinetics. Steady-state kinetic parameters for the prenylation reaction using the bifunctional aldehyde-alkyne analogue are shown in FIG. 4. […] Nevertheless, despite this lower activity with 1, using elevated levels of PFTase (200 nM), it is relatively easy to drive these enzymatic reactions to completion in 2 hours.
Enzymatic reaction mixtures contained Tris.HCl (50 mM, pH 7.5), MgCl2 (10 mM), ZnCl2 (10 μM), DTT (5.0 mM), 2.4 μN-dansyl-GCVIA (SEQ ID NO: 2) (2), 0.040% (w/v) n-dodecyl-β-D-maltoside PFTase (80 nM), and varying concentrations of 1 (0-50 μM), in a final volume of 250 μL. The reaction mixtures were equilibrated at 30 ° C. for 1 min, initiated by the addition of PFTase, and monitored for an increase in fluorescence (λex=340 nm, λem=505 nm) for approximately 20 min. The initial rates of formation of products were obtained as slopes in IU/min using least squares analysis. Corrections were applied to all the rate calculations based on the difference between the fluorescence intensity of the prenylated product and the starting peptide. Assuming 100% conversion, the difference corresponds only to the fluorescence of the total amount of the product. […]

Substrate in data set [1]: C#Cc1cc(C=O)cc(OC/C(C)=C/CC/C(C)=C/COP(=O)(O)OP(=O)(O)O)c1
As to conditions: other: single peptide concentration 2.4 μM; pH 7.5; 30.0 °C. The method, then:
as §1
(§2) Enzymatic reaction mixtures contained Tris.HCl (50 mM, pH 7.5), MgCl2 (10 mM), ZnCl2 (10 μM), DTT (5.0 mM), 2.4 μN-dansyl-GCVIA (SEQ ID NO: 2) (2), 0.040% (w/v) n-dodecyl-β-D-maltoside PFTase (80 nM), and varying concentrations of 1 (0-50 μM), in a final volume of 250 μL. The reaction mixtures were equilibrated at 30 ° C. for 1 min, initiated by the addition of PFTase, and monitored for an increase in fluorescence (λex=340 nm, λem=505 nm) for approximately 20 min. The initial rates of formation of products were obtained as slopes in IU/min using least squares analysis. Corrections were applied to all the rate calculations based on the difference between the fluorescence intensity of the prenylated product and the starting peptide. Assuming 100% conversion, the difference corresponds only to the fluorescence of the total amount of the product. The slope was then divided by the fluorescence difference followed by multiplying by the total concentration of peptide (2.4 μM) which then gives the rate of formation of product in μM/s. It should be noted that the KM values reported here are actually apparent KM values, since the measurements were performed in only a single peptide concentration. The data were fit to a Michaelis-Menten model
(§3) [formula] using a nonlinear regression program, to determine kcat and KM (FIG. 4).

Substrate in data set [2]: CC(C)=CCC/C(C)=C/CC/C(C)=C/CO[P@@](=O)(O)OP(=O)(O)O
As to conditions: other: single peptide concentration 2.4 μM; pH 7.5; 30.0 °C. How it is done:
as §1, §2, §3

For the molecule `C#Cc1cc(C=O)cc(OC/C(C)=C/CC/C(C)=C/COP(=O)(O)OP(=O)(O)O)c1` [Compound 1, (2E,6E)-8-(3-ethynyl-5-formylphenoxy)-3,7-dimethylocta-2,6-dien-1-yl diphosphate], the “kcat lower than the kcat for FPP” value on PFTase (compared with FPP) is listed as 42 fold. In addition, at PFTase (model peptide N-dansyl-GCVIA (2)), the “substrate for the enzyme” value is listed as “alternative substrate”.

B1: PFTase (Saccharomyces cerevisiae S288C) (protein)
chain 1: T1 sequence (P22007 1-431)
chain 2: T1 sequence (P29703 1-316)
notes: made in house
For B1, in data set [1], the Km (as a rule, the substrate concentration at which the rate is half of its maximum) came out at 2.52 µM and the kcat (as a rule, the maximal rate divided by the concentration of active sites) worked out at 0.0123 s⁻¹. In addition, the Km in data set [2] is 1.71 µM.
